Target: the molecule itself
Experiment: SEC; Superdex 200 Increase 10/300; 100 mM Tris-HCl pH 8.5, 150 mM NaCl, 1 mM DTT, 5% glycerol; 0.4 mL/min; His-tag fusion proteins

B1: 6His-AtFH2-FH2 (domain or fragment, Arabidopsis thaliana, UniProt O22824 438-864, looked up)
chain: EKKVETMKPKLKTLHWDKVRASSSRVMVWDQIKSNSFQVNEEMIETLFKVNDPTSRTRDGVVQSVSQENRFLDPRKSHNIAILLRALNVTADEVCEALIEGNSDTLGPELLECLLKMAPTKEEEDKLKELKDDDDGSPSKIGPAEKFLKALLNIPFAFKRIDAMLYIVKFESEIEYLNRSFDTLEAATGELKNTRMFLKLLEAVLKTGNRMNIGTNRGDAHAFKLDTLLKLVDIKGADGKTTLLHFVVQEIIKFEGARVPFTPSQSHIGDNMAEQSAFQDDLELKKLGLQVVSGLSSQLINVKKAAAMDSNSLINETAEIARGIAKVKEVITELKQETGVERFLESMNSFLNKGEKEITELQSHGDNVMKMVKEVTEYFHGNSETHPFRIFAVVRDFLTILDQVCKEVGRVNERTVYGSMPLHSPSN
notes: Arabidopsis thaliana Formin 2 (AtFH2, At2g43800), FH2 domain; cloned in pET23a; Mainly a dimer by size exclusion chromatography (about 100 kDa); source: E. coli Tuner (DE3) pLysS, purified (Ni-NTA)
- stoichiometry N: 2
